Reference: PMC5745793 (2017)
Where two headings read alike, the source gives them in different places.

Columns and labels:
CCR3 (Homo sapiens) [1] = target: CCR3 (Homo sapiens) (UniProt P51677); settings: cited from earlier work
CCR3 (Homo sapiens) [2] = target: CCR3 (Homo sapiens) (UniProt P51677); settings: cited from earlier work; remark: listed apart in the source
CCR3 = target: T1, CCR3 (Homo sapiens, UniProt P51677); test: QCM
T1 chain: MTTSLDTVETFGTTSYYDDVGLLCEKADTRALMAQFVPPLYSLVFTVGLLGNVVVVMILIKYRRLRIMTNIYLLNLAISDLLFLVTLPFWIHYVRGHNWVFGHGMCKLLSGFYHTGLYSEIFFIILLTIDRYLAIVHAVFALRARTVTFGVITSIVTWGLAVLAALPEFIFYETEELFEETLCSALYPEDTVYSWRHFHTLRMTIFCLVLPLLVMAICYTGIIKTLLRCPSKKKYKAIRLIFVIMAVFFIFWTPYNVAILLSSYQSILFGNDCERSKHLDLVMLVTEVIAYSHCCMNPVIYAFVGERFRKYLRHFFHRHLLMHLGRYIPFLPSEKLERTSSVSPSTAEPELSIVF

**Q.** With CCL11 (from UniProt P51671) as the molecule, how does the Kd (CCR3 (Homo sapiens) [1]) read?
**A.** 370 nM

**Q.** For CCL24 (from UniProt O00175), which Kd (CCR3 (Homo sapiens) [2]) is on record?
**A.** 300 nM

B1: CCL8 (protein)
chain: QPDSVSIPITCCFNVINRKIPIQRLESYTRITNIQCPKEAVIFKTKRGKEVCADPKERWVRDSMKHLDQIFQNLKP
**Q.** For B1, which Kd (CCR3) is on record?
**A.** 120 nM
